# From patent publication US20040009911A1, “Hepsin substrates and prodrugs” (IRM, LLC, priority 2002, published 2004)
# ACC/ACMC = fluorogenic leaving group
# Key:
# recombinant hepsin [1] = biological target: T1, recombinant hepsin (Homo sapiens, UniProt P05981); test: Cleavage of fluorogenic tetrapeptide substrates by recombinant hepsin expressed in insect cells; type: biochemical; parameters: Hep136 (covering the prodomain and the catalytic domain); amino acids 46-417; honeybee melittin secretion signal (Mel) (N); made in house; host or cells: SP9 (Sf9) insect cells, baculovirus, pFastBac1; details: with and without a histidine tag
# Procedure: SP9 cells were infected with recombinant virus at a MOI of 5-10 and the activity of hepsin in the supernatant was monitored by the hydrolysis of a fluorogenic peptide, KRLR-ACC. […] To determine the optimal expression time, activity was monitored for 72 hours after infection.
# The activity of hepsin expressed and purified as described above was tested using the following substrates, which were synthesized based on the substrate specificity profile from the positional scanning libraries described above: Acetyl-Pro-Arg-Leu-Arg-ACC/ACMC and Acetyl-Lys-Arg-Leu-Arg-ACC/ACMC.
# Target sequence in this assay (P05981 46-417): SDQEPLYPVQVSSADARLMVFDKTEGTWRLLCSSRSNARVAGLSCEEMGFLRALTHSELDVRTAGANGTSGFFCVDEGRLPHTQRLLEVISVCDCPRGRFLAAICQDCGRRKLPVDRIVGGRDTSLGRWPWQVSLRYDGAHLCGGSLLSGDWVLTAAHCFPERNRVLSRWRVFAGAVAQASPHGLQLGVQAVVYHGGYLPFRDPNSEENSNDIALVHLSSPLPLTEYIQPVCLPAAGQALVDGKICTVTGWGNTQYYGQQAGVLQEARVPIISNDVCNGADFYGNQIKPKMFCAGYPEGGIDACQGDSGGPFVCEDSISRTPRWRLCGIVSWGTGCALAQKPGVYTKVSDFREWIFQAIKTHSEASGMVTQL
# recombinant hepsin [2] = biological target: T1, recombinant hepsin; test: Activation of pro-uPA by hepsin, monitored with uPA substrate GTAR-acc; type: biochemical; parameters: made in house; details: 1 nM recombinant hepsin, 100 μM GTAR-acc; FIG. 10 (squares)
# Procedure: To test whether hepsin is capable of activating pro-uPA (and thereby potentially initiating this proteolytic cascade), uPA was screened through a coumarin-based substrate library and a substrate was designed to monitor uPA proteolytic activity. The substrate designed to monitor uPA activity is Acetyl-Gly-Thr-Ala-Arg-[7-amino-4-carbomoylcoumarin] (GTAR-acc). 2 μM of pro-uPA was incubated with 1 nM of recombinant hepsin and 100 μM of GTAR-acc.
# Target sequence in this assay (P05981 whole entry, the tested form may be a part): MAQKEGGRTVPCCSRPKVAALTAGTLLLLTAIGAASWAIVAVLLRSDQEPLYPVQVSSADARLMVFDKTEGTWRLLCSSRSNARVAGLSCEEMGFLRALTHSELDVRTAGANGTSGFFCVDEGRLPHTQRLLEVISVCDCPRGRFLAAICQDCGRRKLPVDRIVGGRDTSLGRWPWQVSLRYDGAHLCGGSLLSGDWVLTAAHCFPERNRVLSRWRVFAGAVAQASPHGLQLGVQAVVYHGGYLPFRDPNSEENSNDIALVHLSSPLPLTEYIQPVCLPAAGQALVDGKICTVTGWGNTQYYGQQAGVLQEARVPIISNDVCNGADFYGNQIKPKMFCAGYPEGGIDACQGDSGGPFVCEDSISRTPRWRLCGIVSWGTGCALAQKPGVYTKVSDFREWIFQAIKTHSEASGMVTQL
substance,measurement,setting,value
Acetyl-Pro-Arg-Leu-Arg-ACC/ACMC (Ac-PRLR-{ACC/ACMC}; also: C-terminal ACC/ACMC fluorophore) [N-acetyl tetrapeptide hepsin substrate with C-terminal coumarin fluorophore (ACC or ACMC)],cleavage by recombinant hepsin,recombinant hepsin [1],efficiently cleaved
Acetyl-Gly-Thr-Ala-Arg-[7-amino-4-carbomoylcoumarin] (Ac-GTAR-{7‑amino‑4‑carbamoylcoumarin}) [GTAR-acc],cleavage of GTAR-acc by hepsin,recombinant hepsin [2],only marginally cleaves
Acetyl-Lys-Arg-Leu-Arg-ACC/ACMC (Ac-KRLR-{ACC/ACMC}; also: C-terminal ACC/ACMC fluorophore) [N-acetyl tetrapeptide hepsin substrate with C-terminal coumarin fluorophore (ACC or ACMC)],cleavage by recombinant hepsin,recombinant hepsin [1],efficiently cleaved
